This is an account of results in publication PMC5481319.

The target in the data set is T1, (FNRD154A)2-His6 D154A (Escherichia coli) (UniProt P0A9E5).
T1 sequence: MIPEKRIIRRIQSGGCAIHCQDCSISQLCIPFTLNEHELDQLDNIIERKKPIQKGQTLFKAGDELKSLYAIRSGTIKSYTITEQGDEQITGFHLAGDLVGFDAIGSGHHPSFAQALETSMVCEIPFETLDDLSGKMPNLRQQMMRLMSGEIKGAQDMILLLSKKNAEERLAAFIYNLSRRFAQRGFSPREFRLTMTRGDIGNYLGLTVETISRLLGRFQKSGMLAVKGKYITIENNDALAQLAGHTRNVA
Briefly: EMSA. Conditions: 20 mM Tris, 50 mM NaCl, 40 mM EDTA ([…], pH 6.8, 30 min at 37 C. Background: A gel shift assay detects complexes by their altered migration in electrophoresis.

Regarding “TCAGGCAGATAAACCCGTTCTTTGGCCTTGCCACTTAAAGTGCCAAAATCAATCTCCGTACTGATTTTCTCCGGTGTAAAAGAAAGCCCAGTATCAGAAGCCAGTGCAGCAAACGCTACAGGAGCTGAGAGTGCAGTAGCAAGAATCTTTAAGTACATAGACAAGTTAACTCCATTCCACTCGTTTGTTTTTGATAAATATTTTTTTATTTACTCGTAGTAGTCAACTGAAAAATGCTGTTTTGTTTAACGTTTGTTT (double strand) [ompT plasmid promoter PCR product]”, the binding entry was “binds”.
